Source: US20080167229A1 (Dana-Farber, published 2008)

Legend:
[1] = target: T1, endogenous USP1, full length (HeLa and 293T cells) (human, UniProt O94782 1-785); assay: anti-Flag immunoprecipitation from transiently transfected 293T cells, anti-USP1 immunoblot
T1 construct: Full length endogenous protein detected in immunoprecipitates; also called Ubiquitin Specific Protease 1
T1 sequence: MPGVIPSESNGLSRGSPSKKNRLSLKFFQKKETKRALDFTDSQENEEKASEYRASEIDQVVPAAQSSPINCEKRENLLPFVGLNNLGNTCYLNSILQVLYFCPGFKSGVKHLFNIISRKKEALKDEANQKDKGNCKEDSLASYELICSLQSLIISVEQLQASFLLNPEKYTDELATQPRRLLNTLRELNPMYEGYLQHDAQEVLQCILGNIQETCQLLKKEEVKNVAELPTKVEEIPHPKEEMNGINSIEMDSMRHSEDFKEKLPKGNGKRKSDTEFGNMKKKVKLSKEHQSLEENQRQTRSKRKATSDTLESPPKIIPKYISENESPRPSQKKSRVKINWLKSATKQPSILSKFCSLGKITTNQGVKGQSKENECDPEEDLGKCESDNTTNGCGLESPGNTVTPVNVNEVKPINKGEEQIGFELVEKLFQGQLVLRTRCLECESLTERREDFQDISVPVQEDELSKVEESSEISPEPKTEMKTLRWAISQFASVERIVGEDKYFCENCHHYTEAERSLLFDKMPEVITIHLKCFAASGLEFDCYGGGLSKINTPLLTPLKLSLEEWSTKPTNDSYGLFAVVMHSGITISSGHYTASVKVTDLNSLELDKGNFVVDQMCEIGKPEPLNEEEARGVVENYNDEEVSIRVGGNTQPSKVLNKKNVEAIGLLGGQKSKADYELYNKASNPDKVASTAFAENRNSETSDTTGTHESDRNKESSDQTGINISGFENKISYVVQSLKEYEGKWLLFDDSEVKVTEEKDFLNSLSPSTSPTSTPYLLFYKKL
Protocol: (§1) The Flag-tagged proteins were immunoprecipitated from cell lysates using anti-Flag antibodies. The immunoprecipitates were analyzed using the indicated antibodies. […] The concentrations of all proteins were 10 nM.

[2] = target: T2, N-terminal cleavage product of endogenous USP1 (human, UniProt O94782 1-671); assay: as above
T2 construct: the end at 671 is inferred from that; also called N-terminal USP1; N-terminal USP1 fragment
T2 sequence: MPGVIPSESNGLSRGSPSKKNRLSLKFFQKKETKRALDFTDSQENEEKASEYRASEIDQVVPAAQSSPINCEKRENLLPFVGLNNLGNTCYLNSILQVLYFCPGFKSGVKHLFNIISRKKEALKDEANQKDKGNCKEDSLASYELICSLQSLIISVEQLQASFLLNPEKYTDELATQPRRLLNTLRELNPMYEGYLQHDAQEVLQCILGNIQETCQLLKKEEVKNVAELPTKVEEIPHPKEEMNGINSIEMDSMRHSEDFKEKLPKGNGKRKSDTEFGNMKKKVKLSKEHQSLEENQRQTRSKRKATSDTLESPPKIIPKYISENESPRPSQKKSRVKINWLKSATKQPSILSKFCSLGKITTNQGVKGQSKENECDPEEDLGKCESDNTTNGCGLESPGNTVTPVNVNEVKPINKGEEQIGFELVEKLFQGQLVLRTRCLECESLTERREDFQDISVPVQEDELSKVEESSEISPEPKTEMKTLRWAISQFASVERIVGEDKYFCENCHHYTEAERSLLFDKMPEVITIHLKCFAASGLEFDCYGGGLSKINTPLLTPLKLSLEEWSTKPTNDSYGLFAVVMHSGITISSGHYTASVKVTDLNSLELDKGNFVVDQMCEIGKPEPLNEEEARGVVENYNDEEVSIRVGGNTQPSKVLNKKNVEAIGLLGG
Protocol: as §1

B1: Flag-tagged UAF1-Δ507-546 expressed in 293T cells (other)
chain: MAAHHRQNTAGRRKVQVSYVIRDEVEKYNRNGVNALQLDPALNRLFTAGRDSIIRIWSVNQHKQDPYIASMEHHTDWVNDIVLCCNGKTLISASSDTTVKVWNAHKGFCMSTLRTHKDYVKALAYAKDKELVASAGLDRQIFLWDVNTLTALTASNNTVTTSSLSGNKDSIYSLAMNQLGTIIVSGSTEKVLRVWDPRTCAKLMKLKGHTDNVKALLLNRDGTQCLSGSSDGTIRLWSLGQQRCIATYRVHDEGVWALQVNDAFTHVYSGGRDRKIYCTDLRNPDIRVLICEEKAPVLKMELDRSADPPPAIWVATTKSTVNKWTLKGIHNFRASGDYDNDCTNPITPLCTQPDQVIKGGASIIQCHILNDKRHILTKDTNNNVAYWDVLKACKVEDLGKVDFEDEIKKRFKMVYVPNWFSVDLKTGMLTITLDESDCFAAWVSAKDAGFSSPDGSDPKLNLGGLLLQALLEYWPRTHVNPMDEEENEVNHVNGEQENRVQKGNGYPQWVIDITVDKNMPKFNKIPFYLQPHASSGAKTLKKDRLSASDMLQVRKVMEHVYEKIINLDNESQTTSSSNNEKPGEQEKEEDIAVLAEEKIELLCQDQVLDPNMDLRTVKHFIWKSGGDLTLHYRQKS
notes: Deletion of aa 507-546 as printed; not shown: Flag tag
binding result [1]: no binding
binding result [2]: no binding
